According to patent US20080213270:

Test system: Neurotensin (1-13)

Substance: neurolysin (NLN), mouse mast cell-associated
- NT degradation by A23187-activated BMCMCs transduced with shRNA (percentage of NT remaining): mMC-CPA- or NL-shRNA-transduced BMCMCs also exhibited significantly reduced ability to degrade NT after activation with A23187 (5 uM)
- NT degradation by membrane or cytosol preparations of mouse BMCMCs (percentage of NT remaining): either membrane or cytosol preparations of mouse BMCMCs degraded NT, an ability that was almost completely inhibited by the NLN inhibitor, Pro-Ile (10 mM)
